The text below walks through data of paper PMC2708863.

Holding throughout (test): NMR titration
Assay [1] deals with ^4–5FnI, human fibronectin residues 183–275 (human) (UniProt P02751).
Assay [2] addresses ^2–3FnI, human fibronectin residues 93–182 (human) (UniProt P02751).
In assay [3] the target is ^4–5FnI, human fibronectin residues 183–275 (human) (UniProt P02751). The source holds these as a separate data set.
The target of assay [4] is ^2–5FnI, second to fifth type I domains of human fibronectin (human).

pKd: −log10 of the molar value. Read-outs that look alike come from different tables or passages of the source.

Regarding “^2FnIII, second type III domain of human fibronectin (domain or fragment)”, the pKd (usually the Kd on a negative log10 scale, so that one unit is a factor of ten) in assay [1] was 3.09; in assay [2] it was 3.15; in assay [3], 2.92.
In assay [4], “^2–3FnIII, second and third type III domains of human fibronectin (domain or fragment)” showed a negative logarithm of the Kd (pKd) of 3.90 and a fractional saturation of 25%.
